Results from paper PMC6279937, “Biochemical Characterization of Aspergillus fumigatus AroH, a Putative Aromatic Amino Acid Aminotransferase” (Frontiers in Molecular Biosciences, 2018).

Legend:
[1] = biological target: Aspergillus fumigatus AroH, recombinant, with a C-terminal 6xHis tag (Aspergillus fumigatus); test: SEC; 5 uM holoAroH on Superdex 200 10/300 GL, 0.1 M potassium phosphate pH 7.4, 0.5 ml/min; elution volume compared with molecular weight standards
AroH = biological target: T1, AroH (Aspergillus fumigatus, UniProt Q4X0F7); test: intrinsic fluorescence quenching of apoenzyme, tight-binding fit; details: read-out: KD(PLP)
T1 construct: gene AFUA_2G13630; entire AroH cDNA with C-terminal 6xHis tag (kept) in pET22b, synthesized by GenScript, expressed in E. coli BL21(DE3); subunit mass 59480 Da; homodimer with 1 PLP per subunit
T1 sequence (Q4X0F7 1-526): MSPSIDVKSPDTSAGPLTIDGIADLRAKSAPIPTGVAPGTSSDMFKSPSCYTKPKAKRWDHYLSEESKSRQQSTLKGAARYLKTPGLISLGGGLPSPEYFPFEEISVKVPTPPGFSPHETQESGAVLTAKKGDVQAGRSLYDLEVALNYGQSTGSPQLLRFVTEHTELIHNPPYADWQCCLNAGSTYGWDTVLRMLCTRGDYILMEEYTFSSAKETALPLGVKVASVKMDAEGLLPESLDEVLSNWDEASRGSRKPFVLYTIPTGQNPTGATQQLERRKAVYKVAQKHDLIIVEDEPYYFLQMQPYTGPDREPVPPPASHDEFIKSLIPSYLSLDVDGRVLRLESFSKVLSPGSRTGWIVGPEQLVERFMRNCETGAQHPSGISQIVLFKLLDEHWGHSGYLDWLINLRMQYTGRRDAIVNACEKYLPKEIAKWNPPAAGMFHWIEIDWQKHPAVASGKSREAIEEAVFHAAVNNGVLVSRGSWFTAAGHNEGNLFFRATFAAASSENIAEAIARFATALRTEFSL

purified protein [2] = substrate: N[C@@H](CCC(=O)O)C(=O)O; test: purified protein; assay type: biochemical, Aspergillus fumigatus; details: co-substrate α-ketoadipate, 100 μM PLP, 66 mM potassium phosphate pH 7.4
purified protein [3] = substrate: N[C@@H](CCCC(=O)O)C(=O)O; test: purified protein; assay type: biochemical, Aspergillus fumigatus; details: co-substrate α-ketoglutarate, 100 μM PLP, 66 mM potassium phosphate pH 7.4
purified protein [4] = substrate: N[C@@H](Cc1c[nH]c2ccccc12)C(=O)O; test: purified protein; assay type: biochemical, Aspergillus fumigatus; details: co-substrate 1 mM α-ketoglutarate, 100 μM PLP, 66 mM potassium phosphate pH 8.2, 25°C, pH 8.2
purified protein [5] = substrate: N[C@@H](Cc1ccc(O)cc1)C(=O)O; test: purified protein; assay type: biochemical, Aspergillus fumigatus; details: co-substrate 1 mM α-ketoglutarate, 100 μM PLP, 66 mM potassium phosphate pH 8.2, 25°C, pH 8.2
purified protein [6] = substrate: N[C@@H](Cc1ccccc1)C(=O)O; test: purified protein; assay type: biochemical, Aspergillus fumigatus; details: co-substrate 1 mM α-ketoglutarate, 100 μM PLP, 66 mM potassium phosphate pH 8.2 (Figure 5 legend says pH 7.4), 25°C
purified protein [7] = substrate: Nc1ccccc1C(=O)C[C@H](N)C(=O)O; test: purified protein; assay type: biochemical, Aspergillus fumigatus; details: co-substrate α-ketoglutarate, 100 μM PLP, 66 mM potassium phosphate pH 7.4
purified protein [8] = substrate: O=C(O)CCC(=O)C(=O)O; test: purified protein; assay type: biochemical, Aspergillus fumigatus; details: co-substrate 20 mM L-tryptophan, 100 μM PLP, 66 mM potassium phosphate pH 8.2, 25°C, pH 8.2
purified protein [9] = substrate: O=C(O)CCCC(=O)C(=O)O; test: purified protein; assay type: biochemical, Aspergillus fumigatus; details: co-substrate L-glutamate, 100 μM PLP, 66 mM potassium phosphate pH 7.4

Aspergillus fumigatus AroH, recombinant, with a C-terminal 6xHis tag (enzyme)
stoichiometry N [1]: 2

Cc1ncc(COP(=O)(O)O)c(C=O)c1O [PLP]
Kd (AroH): 100 ± 20 nM

B1: AroH (Aspergillus fumigatus Af293) (protein)
chain: T1 sequence (Q4X0F7 1-526)
notes: entire AroH cDNA with C-terminal 6xHis tag (kept) in pET22b, synthesized by GenScript, expressed in E. coli BL21(DE3); subunit mass 59480 Da; homodimer with 1 PLP per subunit
Km (purified protein [2]): 10000 ± 1000 µM
kcat (purified protein [2]): 10.3 ± 0.3 s⁻¹
kcat/Km (purified protein [2]): 960 ± 80 M⁻¹ s⁻¹
Km (purified protein [3]): 3300 ± 400 µM
kcat (purified protein [3]): 13.2 ± 0.5 s⁻¹
kcat/Km (purified protein [3]): 4000 ± 400 M⁻¹ s⁻¹
Km (purified protein [4]): 2100 ± 300 µM
kcat (purified protein [4]): 3 ± 0.1 s⁻¹
kcat/Km (purified protein [4]): 1400 ± 200 M⁻¹ s⁻¹
Km (purified protein [5]): 500 ± 100 µM
kcat (purified protein [5]): 4 ± 0.3 s⁻¹
kcat/Km (purified protein [5]): 8000 ± 2000 M⁻¹ s⁻¹
Km (purified protein [6]): 1400 ± 200 µM
kcat (purified protein [6]): 7.4 ± 0.2 s⁻¹
kcat/Km (purified protein [6]): 5200 ± 600 M⁻¹ s⁻¹
Km (purified protein [7]): 9000 ± 2000 µM
kcat (purified protein [7]): 4.1 ± 0.4 s⁻¹
kcat/Km (purified protein [7]): 400 ± 100 M⁻¹ s⁻¹
Km (purified protein [8]): 180 ± 20 µM
kcat (purified protein [8]): 2.5 ± 0.1 s⁻¹
kcat/Km (purified protein [8]): 14000 ± 2000 M⁻¹ s⁻¹
Km (purified protein [9]): 140 ± 30 µM
kcat (purified protein [9]): 12.5 ± 1 s⁻¹
kcat/Km (purified protein [9]): 90000 ± 20000 M⁻¹ s⁻¹
